Measured values taken from the supplement of paper PMC11316812.
± gives the standard deviation of the averaged measurements.

Columns and labels:
[1] = test system: MCF7; experiment: percentage of EdU-negative (G0-arrested) nuclei per well, 72 h; higher = more G0 arrest; settings: reference: sequence is the full UniProt precursor, the tested protein was the secreted form or ectodomain
[2] = test system: hTERT-HMEC; experiment: as above; settings: reference: sequence is the full UniProt precursor, the tested protein was the secreted form or ectodomain
[3] = protein concentration 0.03125 µM
[4] = protein concentration 0.3125 µM
[5] = protein concentration 0.0197775 µM
[6] = protein concentration 0.197775 µM
[7] = protein concentration 0.0255 µM
[8] = protein concentration 0.0257143 µM
[9] = protein concentration 0.257143 µM
[10] = protein concentration 0.0225 µM
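Further: secreted proteins added to cultured cells, EdU pulse at the end, nuclei found by Hoechst imaging, EdU status from nuclear versus surrounding ring intensity ratio, PBS as neutral control.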

## MALLPVLFLVTVLLPSLPAEGKDPAFTALLTTQLQVQREIVNKHNELRKAVSPPASNMLKMEWSREVTTNAQRWANKCTLQHSDPEDRKTSTRCGENLYMSSDPTSWSSAIQSWYDEILDFVYGVGPKSPNAVVGHYTQLVWYSTYQVGCGIAYCPNQDSLKYYYVCQYCPAGNNMNRKNTPYQQGTPCAGCPDDCDKGLCTNSCQYQDLLSNCDSLKNTAGCEHELLKEKCKATCLCENKIY
[1]; [3]
  percentage of EdU-negative: 26.4 ± 1.6%
[1]; [4]
  percentage of EdU-negative: 25 ± 1.1%
[2]; [3]
  percentage of EdU-negative: 5.26 ± 0.72%
[2]; [4]
  percentage of EdU-negative: 6.12 ± 1.6%

## MALLWGLLVLSWSCLQGPCSVFSPVSAMEPLGRQLTSGPNQEQVSPLTLLKLGNQEPGGQTALKSPPGVCSRDPTPEQTHRLARAMMAFTADLFSLVAQTSTCPNLILSPLSVALALSHLALGAQNHTLQRLQQVLHAGSGPCLPHLLSRLCQDLGPGAFRLAARMYLQKGFPIKEDFLEQSEQLFGAKPVSLTGKQEDDLANINQWVKEATEGKIQEFLSGLPEDTVLLLLNAIHFQGFWRNKFDPSLTQRDSFHLDEQFTVPVEMMQARTYPLRWFLLEQPEIQVAHFPFKNNMSFVVLVPTHFEWNVSQVLANLSWDTLHPPLVWERPTKVRLPKLYLKHQMDLVATLSQLGLQELFQAPDLRGISEQSLVVSGVQHQSTLELSEVGVEAAAATSIAMSRMSLSSFSVNRPFLFFIFEDTTGLPLFVGSVRNPNPSAPRELKEQQDSPGNKDFLQSLKGFPRGDKLFGPDLKLVPPMEEDYPQFGSPK
[1]; [5]
  percentage of EdU-negative: 24.1 ± 0.71%
[1]; [6]
  percentage of EdU-negative: 29.1 ± 1.3%
[2]; [5]
  percentage of EdU-negative: 4.44 ± 1.1%
[2]; [6]
  percentage of EdU-negative: 10.5 ± 1%

## MALPFALLMALVVLSCKSSCSLDCDLPQTHSLGHRRTMMLLAQMRRISLFSCLKDRHDFRFPQEEFDGNQFQKAEAISVLHEVIQQTFNLFSTKDSSVAWDERLLDKLYTELYQQLNDLEACVMQEVWVGGTPLMNEDSILAVRKYFQRITLYLTEKKYSPCAWEVVRAEIMRSFSSSRNLQERLRRKE
[1]; [7]
  percentage of EdU-negative: 48.4 ± 2.7%
[1]; protein concentration 0.255 µM
  percentage of EdU-negative: 49.64 ± 0.2%
[2]; [7]
  percentage of EdU-negative: 15.8 ± 6.2%
[2]; protein concentration 0.255 µM
  percentage of EdU-negative: 27.4 ± 0.99%

## MALPFALMMALVVLSCKSSCSLGCNLSQTHSLNNRRTLMLMAQMRRISPFSCLKDRHDFEFPQEEFDGNQFQKAQAISVLHEMMQQTFNLFSTKNSSAAWDETLLEKFYIELFQQMNDLEACVIQEVGVEETPLMNEDSILAVKKYFQRITLYLMEKKYSPCAWEVVRAEIMRSLSFSTNLQKRLRRKD
[1]; protein concentration 0.03 µM
  percentage of EdU-negative: 49.17 ± 0.42%
[1]; protein concentration 0.3 µM
  percentage of EdU-negative: 48.8 ± 4.3%
[2]; protein concentration 0.03 µM
  percentage of EdU-negative: 21.5 ± 5.7%
[2]; protein concentration 0.3 µM
  percentage of EdU-negative: 34.2 ± 2.4%

## MALPFVLLMALVVLNCKSICSLGCDLPQTHSLSNRRTLMIMAQMGRISPFSCLKDRHDFGFPQEEFDGNQFQKAQAISVLHEMIQQTFNLFSTKDSSATWDETLLDKFYTELYQQLNDLEACMMQEVGVEDTPLMNVDSILTVRKYFQRITLYLTEKKYSPCAWEVVRAEIMRSFSLSANLQERLRRKE
[1]; [3]
  percentage of EdU-negative: 45.45 ± 0.21%
[1]; [4]
  percentage of EdU-negative: 48.29 ± 0.24%
[2]; [3]
  percentage of EdU-negative: 22.9 ± 1.4%
[2]; [4]
  percentage of EdU-negative: 28.6 ± 0.61%

## MALPRCTWPNYVWRAVMACLVHRGLGAPLTLCMLGCLLQAGHVLSQKLDDVDPLVATNFGKIRGIKKELNNEILGPVIQFLGVPYAAPPTGERRFQPPEPPSPWSDIRNATQFAPVCPQNIIDGRLPEVMLPVWFTNNLDVVSSYVQDQSEDCLYLNIYVPTEDVKRISKECARKPGKKICRKGGPLTKKQTDDLGDNDGAEDEDIRDSGGPKPVMVYIHGGSYMEGTGNLYDGSVLASYGNVIVITVNYRLGVLGFLSTGDQAAKGNYGLLDLIQALRWTSENIGFFGGDPLRITVFGSGAGGSCVNLLTLSHYSEGNRWSNSTKGLFQRAIAQSGTALSSWAVSFQPAKYARMLATKVGCNVSDTVELVECLQKKPYKELVDQDIQPARYHIAFGPVIDGDVIPDDPQILMEQGEFLNYDIMLGVNQGEGLKFVENIVDSDDGISASDFDFAVSNFVDNLYGYPEGKDVLRETIKFMYTDWADRHNPETRRKTLLALFTDHQWVAPAVATADLHSNFGSPTYFYAFYHHCQTDQVPAWADAAHGDEVPYVLGIPMIGPTELFPCNFSKNDVMLSAVVMTYWTNFAKTGDPNQPVPQDTKFIHTKPNRFEEVAWTRYSQKDQLYLHIGLKPRVKEHYRANKVNLWLELVPHLHNLNDISQYTSTTTKVPSTDITFRPTRKNSVPVTSAFPTAKQDDPKQQPSPFSVDQRDYSTELSVTIAVGASLLFLNILAFAALYYKKDKRRHDVHRRCSPQRTTTNDLTHAQEEEIMSLQMKHTDLDHECESIHPHEVVLRTACPPDYTLAMRRSPDDVPLMTPNTITMIPNTIPGIQPLHTFNTFTGGQNNTLPHPHPHPHSHSTTRV [Q8N2Q7]
[1]; [8]
  percentage of EdU-negative: 23.1 ± 1.3%
[1]; [9]
  percentage of EdU-negative: 22.8 ± 3.5%
[2]; [8]
  percentage of EdU-negative: 4.75 ± 0.6%
[2]; [9]
  percentage of EdU-negative: 5.43 ± 0.056%

## MALPSLLLLVAALAGGVRPPGARNLTLAVVLPEHNLSYAWAWPRVGPAVALAVEALGRALPVDLRFVSSELEGACSEYLAPLSAVDLKLYHDPDLLLGPGCVYPAASVARFASHWRLPLLTAGAVASGFSAKNDHYRTLVRTGPSAPKLGEFVVTLHGHFNWTARAALLYLDARTDDRPHYFTIEGVFEALQGSNLSVQHQVYAREPGGPEQATHFIRANGRIVYICGPLEMLHEILLQAQRENLTNGDYVFFYLDVFGESLRAGPTRATGRPWQDNRTREQAQALREAFQTVLVITYREPPNPEYQEFQNRLLIRAREDFGVELGPSLMNLIAGCFYDGILLYAEVLNETIQEGGTREDGLRIVEKMQGRRYHGVTGLVVMDKNNDRETDFVLWAMGDLDSGDFQPAAHYSGAEKQIWWTGRPIPWVKGAPPSDNPPCAFDLDDPSCDKTPLSTLAIVALGTGITFIMFGVSSFLIFRKLMLEKELASMLWRIRWEELQFGNSERYHKGAGSRLTLSLRGSSYGSLMTAHGKYQIFANTGHFKGNVVAIKHVNKKRIELTRQVLFELKHMRDVQFNHLTRFIGACIDPPNICIVTEYCPRGSLQDILENDSINLDWMFRYSLINDLVKGMAFLHNSIISSHGSLKSSNCVVDSRFVLKITDYGLASFRSTAEPDDSHALYAKKLWTAPELLSGNPLPTTGMQKADVYSFGIILQEIALRSGPFYLEGLDLSPKEIVQKVRNGQRPYFRPSIDRTQLNEELVLLMERCWAQDPAERPDFGQIKGFIRRFNKEGGTSILDNLLLRMEQYANNLEKLVEERTQAYLEEKRKAEALLYQILPHSVAEQLKRGETVQAEAFDSVTIYFSDIVGFTALSAESTPMQVVTLLNDLYTCFDAIIDNFDVYKVETIGDAYMVVSGLPGRNGQRHAPEIARMALALLDAVSSFRIRHRPHDQLRLRIGVHTGPVCAGVVGLKMPRYCLFGDTVNTASRMESNGQALKIHVSSTTKDALDELGCFQLELRGDVEMKGKGKMRTYWLLGERKGPPGLL
[1]; [10]
  percentage of EdU-negative: 28 ± 1%
[1]; protein concentration 0.225 µM
  percentage of EdU-negative: 28.8 ± 1.5%
[2]; [10]
  percentage of EdU-negative: 4.62 ± 0.46%
[2]; protein concentration 0.225 µM
  percentage of EdU-negative: 6.68 ± 1.3%
